For assay [1], the target named is human PD-1 on cells (human) (UniProt Q15116).
In assay [2] the target is cynomolgus monkey PD-1 on cells (cynomolgus monkey) (UniProt B0LAJ3). Briefly: flow cytometry on CHOK1-cPD-1 cells. Background: In flow cytometry, cells or beads pass a laser one at a time.
The target in assay [3] is human PD-1 on cells (human) (UniProt Q15116). Kind of assay: flow cytometry on CHOK1-hPD-1 cells.
Assay [4] addresses hPD-1 protein (ELISA coat) (human) (UniProt Q15116). Briefly: ELISA against hPD-1 ECD-Fc protein (plate coat).
Assay [5] concerns the target mPD-1 protein (ELISA coat) (mouse) (UniProt Q02242). Briefly: ELISA against mPD-1 ECD-Fc protein (plate coat). Background: In an ELISA, binding on a coated surface is turned into a signal by an enzyme label.
The target of assay [6] is human PD-1 on cells (human) (UniProt Q15116). Kind of assay: cell based RBA (flow cytometry): blocking of Biotin-hPD-L1 binding to CHOK1-hPD-1 cells.
The target is the same in assay [7]. Briefly: cell based RBA (flow cytometry): blocking of Biotin-hPD-L2 binding to CHOK1-hPD-1 cells.

These results are taken from US20210261665A1.

Chain of human PD-1 on cells (human) (Q15116 25-288): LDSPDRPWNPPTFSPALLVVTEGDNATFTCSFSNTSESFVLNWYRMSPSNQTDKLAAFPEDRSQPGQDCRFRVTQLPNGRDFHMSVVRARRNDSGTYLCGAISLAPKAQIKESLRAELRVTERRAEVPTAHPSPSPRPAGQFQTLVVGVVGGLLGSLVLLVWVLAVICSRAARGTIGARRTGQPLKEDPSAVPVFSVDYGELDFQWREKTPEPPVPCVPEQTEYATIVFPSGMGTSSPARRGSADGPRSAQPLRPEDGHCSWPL
Chain of cynomolgus monkey PD-1 on cells (cynomolgus monkey) (B0LAJ3 entry or part of it limits assumed): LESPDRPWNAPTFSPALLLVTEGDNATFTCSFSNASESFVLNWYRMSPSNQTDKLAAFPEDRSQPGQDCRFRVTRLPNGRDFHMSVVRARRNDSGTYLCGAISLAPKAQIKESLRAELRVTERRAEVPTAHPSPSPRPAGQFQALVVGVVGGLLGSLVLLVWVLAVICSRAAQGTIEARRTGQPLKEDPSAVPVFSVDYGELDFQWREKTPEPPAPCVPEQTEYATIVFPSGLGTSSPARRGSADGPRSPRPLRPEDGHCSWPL
Chain of mPD-1 protein (ELISA coat) (mouse) (Q02242 25-167 limits assumed): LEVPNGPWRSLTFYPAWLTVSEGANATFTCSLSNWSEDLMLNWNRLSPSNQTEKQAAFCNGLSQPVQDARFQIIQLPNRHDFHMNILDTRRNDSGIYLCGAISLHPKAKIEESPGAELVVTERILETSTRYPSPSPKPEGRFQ
Chain of hPD-1 protein (ELISA coat) (human) (Q15116 25-167 limits assumed): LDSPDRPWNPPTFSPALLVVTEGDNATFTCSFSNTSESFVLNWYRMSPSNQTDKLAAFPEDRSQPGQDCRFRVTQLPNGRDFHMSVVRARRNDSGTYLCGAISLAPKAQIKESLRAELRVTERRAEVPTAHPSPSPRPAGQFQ

control human IgG4 (antibody): the EC50 printed for the negative control; its RLU curve is flat at about 270000 and falls to about 225000 at the highest concentration, no activation in assay [1] came out at 12.4 µg/mL. Further, the Max MFI amounted to 86 in assay [2] and 107 in assay [3]. Besides, the Max OD450 worked out at 0.67 in assay [4] and 0.92 in assay [5]. Moreover, the Inhibition rate in assay [6] is 4.9%; in assay [7], -5.5%.
